Biological target: T1, human cancer-specific MUC1 (human, UniProt P15941 24-1255)
T1 construct: whole, on cells; Endogenous MUC1 with cancer-specific incomplete O-glycosylation on cancer cells; also called Mucin 1; human MUC1
Test: Cell ELISA on formalin-fixed T-47D cells, HRP anti-human Ig kappa, luminescence
Protocol: Specifically, breast cancer cell line T-47D cells (purchasable from ATCC; HTB-133) expressing human cancer-specific MUC1 were inoculated at 0.75×10⁴ cells per well to a 96-well ELISA plate coated with collagen I, and cultured overnight. […] Then, a horseradish peroxidase (HRP)-labeled goat anti-human Igκ antibody (Southern Biotechnology Associates, Inc.) was reacted as a secondary antibody. ECL Prime Western Blotting Detection Reagent (GE Healthcare Japan Corp.) was added thereto for luminescence, and the degree of the luminescence was examined.

Binder	binding activity relative to 1B2 Fab
P10-2 Fab (Fab, V domains shown, heavy chain N-terminal glutamine modified into pyroglutamic acid in a great majority of purified antibodies, expressed in Expi293F cells, purified on KappaSelect; also called anti-human MUC1 antibody Fab fragment P10-2) VH: QVQLVQSGAEVKKPGASVKVSCKASGYTFTNYGLSWVRQAPGQGLEWMGENHPGSGIIYHNEKFRGRVTLTADRSTSTAYMELSSLRSEDTAVYYCARSSGTRGFDYWGQGTLVTVSS VL: DVVMTQTPLSLSVTPGQPASISCRSSQSIVHSNGNTYLEWYLQKPGQSPQLLIYRVSNRFSGVPDRFSGSGSGTDFTLKISRVEAEDVGVYYCFQGSHGPWTFGQGTKLEIKR	≥ 10 times
P10-1 Fab (Fab, V domains shown, expressed in Expi293F cells, purified on KappaSelect; also called anti-human MUC1 antibody Fab fragment P10-1) VH: QVQLVQSGAEVKKPGASVKVSCKASGYTFTNYGLSWVRQAPGQGLEWMGENHPGSGIIYHNEKFRGRVTLTADRSTSTAYMELSSLRSEDTAVYYCARSSGTRGFAYWGQGTLVTVSS VL: DVVMTQTPLSLSVTPGQPASISCRSSQSIVHSNGNTYLEWYLQKPGQSPQLLIYRVSNRFSGVPDRFSGSGSGTDFTLKISRVEAEDVGVYYCFQGSHGPWTFGQGTKLEIKR	≥ 10 times

Reference: patent US20200171174A1 (Astellas, published 2020)
